In doi:10.1101/699223 (bioRxiv, 2019):

Key:
[1] = target: T1, human BBS2 L349W, c-Myc-tagged (human, UniProt Q9BXC9 1-721, L349W); test: co-IP
T1 sequence (looked up): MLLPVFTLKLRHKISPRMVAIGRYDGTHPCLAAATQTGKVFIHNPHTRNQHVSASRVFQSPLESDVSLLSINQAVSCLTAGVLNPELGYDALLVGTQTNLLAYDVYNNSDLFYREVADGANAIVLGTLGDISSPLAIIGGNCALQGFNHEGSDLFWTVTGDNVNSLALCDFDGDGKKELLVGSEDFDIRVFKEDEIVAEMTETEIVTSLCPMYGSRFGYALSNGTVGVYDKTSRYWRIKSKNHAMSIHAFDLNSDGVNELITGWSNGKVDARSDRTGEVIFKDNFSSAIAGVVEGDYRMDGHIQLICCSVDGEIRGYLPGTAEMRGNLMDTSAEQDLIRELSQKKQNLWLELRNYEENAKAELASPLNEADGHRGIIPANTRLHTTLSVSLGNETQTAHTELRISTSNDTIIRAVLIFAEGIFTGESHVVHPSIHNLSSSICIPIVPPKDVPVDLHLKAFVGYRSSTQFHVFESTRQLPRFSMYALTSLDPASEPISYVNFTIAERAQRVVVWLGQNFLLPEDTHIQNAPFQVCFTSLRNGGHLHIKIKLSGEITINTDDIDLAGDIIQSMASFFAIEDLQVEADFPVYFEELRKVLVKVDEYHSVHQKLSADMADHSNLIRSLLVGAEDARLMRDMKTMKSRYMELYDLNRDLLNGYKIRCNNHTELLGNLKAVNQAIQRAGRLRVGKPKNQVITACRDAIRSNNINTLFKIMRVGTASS

[2] = target: T2, human BBS2 (Bardet-Biedl syndrome protein 2), wild type, HPC4- and c-Myc-tagged (human, UniProt Q9BXC9 1-721); test: pull-down
T2 sequence (looked up): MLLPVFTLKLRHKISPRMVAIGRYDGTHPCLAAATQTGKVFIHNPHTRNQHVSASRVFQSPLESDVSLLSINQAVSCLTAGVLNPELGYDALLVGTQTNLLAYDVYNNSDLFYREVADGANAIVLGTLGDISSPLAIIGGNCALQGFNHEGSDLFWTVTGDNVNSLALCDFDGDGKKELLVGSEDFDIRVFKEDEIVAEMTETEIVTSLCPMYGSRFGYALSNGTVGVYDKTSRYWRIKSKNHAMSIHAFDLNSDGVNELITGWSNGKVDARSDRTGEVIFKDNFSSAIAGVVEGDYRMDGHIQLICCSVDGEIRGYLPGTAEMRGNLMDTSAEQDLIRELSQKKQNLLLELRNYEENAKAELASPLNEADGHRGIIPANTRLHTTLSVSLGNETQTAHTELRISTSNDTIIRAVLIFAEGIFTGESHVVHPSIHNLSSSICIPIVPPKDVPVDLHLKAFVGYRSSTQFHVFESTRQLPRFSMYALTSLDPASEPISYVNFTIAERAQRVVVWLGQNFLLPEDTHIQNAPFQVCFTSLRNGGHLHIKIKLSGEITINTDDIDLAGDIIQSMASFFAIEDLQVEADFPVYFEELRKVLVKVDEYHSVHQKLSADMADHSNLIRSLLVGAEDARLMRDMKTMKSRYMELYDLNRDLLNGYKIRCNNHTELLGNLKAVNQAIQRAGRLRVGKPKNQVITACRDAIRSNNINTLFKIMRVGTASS

B1: human BBS7 (Bardet-Biedl syndrome protein 7), wild type, Flag-Strep-tagged (natural protein, UniProt Q8IWZ6 1-715, looked up)
chain: MDLILNRMDYLQVGVTSQKTMKLIPASRHRATQKVVIGDHDGVVMCFGMKKGEAAAVFKTLPGPKIARLELGGVINTPQEKIFIAAASEIRGFTKRGKQFLSFETNLTESIKAMHISGSDLFLSASYIYNHYCDCKDQHYYLSGDKINDVICLPVERLSRITPVLACQDRVLRVLQGSDVMYAVEVPGPPTVLALHNGNGGDSGEDLLFGTSDGKLALIQITTSKPVRKWEIQNEKKRGGILCIDSFDIVGDGVKDLLVGRDDGMVEVYSFDNANEPVLRFDQMLSESVTSIQGGCVGKDSYDEIVVSTYSGWVTGLTTEPIHKESGPGEELKINQEMQNKISSLRNELEHLQYKVLQERENYQQSSQSSKAKSAVPSFGINDKFTLNKDDASYSLILEVQTAIDNVLIQSDVPIDLLDVDKNSAVVSFSSCDSESNDNFLLATYRCQADTTRLELKIRSIEGQYGTLQAYVTPRIQPKTCQVRQYHIKPLSLHQRTHFIDHDRPMNTLTLTGQFSFAEVHSWVVFCLPEVPEKPPAGECVTFYFQNTFLDTQLESTYRKGEGVFKSDNISTISILKDVLSKEATKRKINLNISYEINEVSVKHTLKLIHPKLEYQLLLAKKVQLIDALKELQIHEGNTNFLIPEYHCILEEADHLQEEYKKQPAHLERLYGMITDLFIDKFKFKGTNVKTKVPLLLEILDSYDQNALISFFDAA
Question: B1 was tested. Which “decrease in binding relative to WT” value [1] did it give?
Answer: 30%

Question: Does B1 bind [2]?
Answer: binds
